From publication PMC11524583, “Neurons enhance blood–brain barrier function via upregulating claudin-5 and VE-cadherin expression due to glial cell line-derived neurotrophic factor secretion” (eLife, 2024)
“And” between values parts separate entries of the source, which are not always exact repeats. Equal entries are not always repeated.

Key:
VE-cadherin = experiment: Western blot of VE-cadherin expression in hCMEC/D3 cells; format: cell-based, Homo sapiens
Summary of the method: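 hCMEC/D3 cells were cultured 6 days in 200 pg/ml GDNF or U251/SH-SY5Y co-culture conditioned medium, ±0.25–1.0 μg/ml anti-GDNF antibody, with medium changed every 24 hr. Alternatively, cells got 10 nM FOXO1, ETS1 or CDH5 siRNA for 12 hr, then GDNF medium for 72 hr. RIPA lysates were immunoblotted with ECL detection.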

FOXO1 = experiment: Western blot of FOXO1 (p-FOXO1/FOXO1, total, cytoplasmic, nuclear) in hCMEC/D3 cells; format: cell-based, Homo sapiens; conditions: for FOXO1/Lamin B Relative Expression, Mean / FOXO1/Lamin B Relative Expression: Nucleus Protein
Procedure: Whole-cell and tissue lysates, nucleoprotein, and cytoplasmic protein were prepared using RIPA Lysis Buffer (Beyotime, Shanghai, China) as the described method ([Wu et al., 2021]). Proteins were separated through sodium dodecyl sulfate–polyacrylamide gel electrophoresis and transferred onto nitrocellulose or polyvinylidene difluoride membranes. The membranes were blocked with 5% skim milk and incubated with corresponding primary antibodies at 4°C overnight. After being washed with Tris-buffered saline Tween buffer, the membranes were incubated with secondary antibodies (Cell Signaling Technology, MA, USA) at 1:3000 dilution: Anti-mouse IgG, HRP-linked Antibody (#7076), Anti-rabbit IgG, HRP-linked Antibody (#7074). Protein levels were visualized using a highly sensitive ECL western blotting substrate and a gel imaging system (Tanon Science & Technology, Shanghai, China).
Here, hCMEC/D3 cells were plated in the plates or culture dishes at 6 × 10^4 cells/cm^2 and transfected with 10 nM of negative control or human FOXO1, ETS1, and CDH5 siRNA (Tsingke Biotechnology, Beijing, China) for 12 hr using Lipofectamine 3000 (Invitrogen, Carlsbad, CA, USA) reagent according to the manufacturer’s instructions. Cells were then incubated with a medium containing GDNF for 72 hr.
The plasmids encoding FOXO1 (EX-Z7404-M02) were constructed by GeneCopoeia (Rockville, MD, USA). The hCMEC/D3 cells were plated in plates or dishes at 6 × 10^4 cells/cm^2. They were subsequently transfected with 1 µg of negative control or plasmids encoding FOXO1 6 hr using Lipofectamine 3000 reagent according to the manufacturer’s instructions. Transfected cells were then incubated with the medium containing GDNF for 72 hr.

[1] = Cytoplasm protein, Figure 4F, group mean, Con = 1.000
[2] = Cytoplasm protein, Figure 4F, individual replicates, relative to Con
[3] = Figure 4B, Cytoplasm Protein, group mean, Con = 1.000
[4] = Figure 4B, Cytoplasm Protein, individual replicates, relative to Con

B1: GDNF: glial cell line-derived neurotrophic factor, recombinant protein (R&D system) (protein, UniProt P39905 78-211, looked up)
Glial cell line-derived …: SPDKQMAVLPRRERNRQAAAANPENSRGKGRRGQRGKNRGCVLTAIHLNVTDLGLGYETKEELIFRYCSGSCDAAETTYDKILKNLSRNRRLVSDKVGQACCRPIAFDDDLSFLDDNLVYHILRKHSAKRCGCI
Q: Which “VE-cadherin/β-actin Relative Expression, Mean” value (VE-cadherin; 50pg, Figure 2D, Con = 1.000) does the source give for B1 here?
A: 1.451

Q: And the “VE-cadherin/β-actin Relative Expression” value (VE-cadherin; 50pg, Figure 2D, relative to Con, single replicates)?
A: 1.462 and 1.352 and 1.497 and 1.494

Q: And the “VE-cadherin/β-actin Relative Expression, Mean” value (VE-cadherin; 100pg, Figure 2D, Con = 1.000)?
A: 1.603

Q: And the “VE-cadherin/β-actin Relative Expression” value (VE-cadherin; 100pg, Figure 2D, relative to Con, single replicates)?
A: 1.56 and 1.556 and 1.562 and 1.733

Q: What about the “VE-cadherin/β-actin Relative Expression, Mean” value (VE-cadherin; 200pg, Figure 2D, Con = 1.000) of the same molecule?
A: 1.795

Q: And the “VE-cadherin/β-actin Relative Expression” value (VE-cadherin; 200pg, Figure 2D, relative to Con, single replicates)?
A: 1.847 and 2.268 and 1.408 and 1.657

Q: What about the “VE-cadherin/β-actin Mean” value (VE-cadherin; Figure 2K, hCMEC/D3 cells, group mean, relative to Con) of the same molecule?
A: 1.787

Q: And the “VE-cadherin/β-actin Relative Expression” value (VE-cadherin; Figure 2K, hCMEC/D3 cells, individual replicates, relative to Con)?
A: 2.089 and 1.381 and 1.914 and 1.765

Q: What about the “VE-cadherin/β-actin Relative Expression, Mean” value (VE-cadherin; Figure 5G, hCMEC/D3 cells, group mean, NC = 1.000) of the same molecule?
A: 1.370

Q: And the “VE-cadherin/β-actin Relative Expression” value (VE-cadherin; Figure 5G, hCMEC/D3 cells, single replicates, relative to NC group)?
A: 1.534 and 1.457 and 1.274 and 1.216

Q: What about the VE-cadherin expression (VE-cadherin; hCMEC/D3 cells incubated with conditioned medium or neurotrophic factor vs normal medium) of the same molecule?
A: induced the expression of claudin-5 and VE-cadherin in a concentration-dependent manner

Q: What about the “VE-cadherin/β-actin Relative Expression, Mean” value (VE-cadherin; relative to Con (mean 1.000), mean of 4, Figure 3A) of the same molecule?
A: 1.424

Q: What about the “VE-cadherin/Tubulin Relative Expression Mean” value (VE-cadherin; relative to Con (mean 1.000), mean of 4, Figure 3B) of the same molecule?
A: 1.899

Q: And the “VE-cadherin/β-actin Relative Expression, Mean” value (VE-cadherin; relative to Con (mean 1.000), mean of 4, Figure 3C)?
A: 1.775

Q: What about the “VE-cadherin/Tubulin Relative Expression Mean” value (VE-cadherin; relative to Con (mean 1.000), mean of 4, Figure 3D) of the same molecule?
A: 1.478

Q: And the “VE-cadherin/β-actin Relative Expression” value (VE-cadherin; relative to Con (mean 1.000), single replicates, Figure 3A)?
A: 1.437 and 1.554 and 1.424 and 1.283

Q: What about the “VE-cadherin/Tubulin Relative Expression” value (VE-cadherin; relative to Con (mean 1.000), single replicates, Figure 3B) of the same molecule?
A: 1.415 and 1.823 and 2.246 and 2.110

Q: And the “VE-cadherin/β-actin Relative Expression” value (VE-cadherin; relative to Con (mean 1.000), single replicates, Figure 3C)?
A: 1.887 and 1.656 and 1.568 and 1.989

Q: And the “VE-cadherin/Tubulin Relative Expression” value (VE-cadherin; relative to Con (mean 1.000), single replicates, Figure 3D)?
A: 1.343 and 1.350 and 1.787 and 1.430

Q: What about the “FOXO1/GAPDH Relative Expression, Mean” value (FOXO1; [1]) of the same molecule?
A: 1.482

Q: What about the “p-FOXO1/GAPDH Relative Expression, Mean” value (FOXO1; [1]) of the same molecule?
A: 1.560

Q: What about the “FOXO1/GAPDH Relative Expression” value (FOXO1; [2]) of the same molecule?
A: 1.349 and 1.335 and 1.673 and 1.570

Q: What about the “p-FOXO1/GAPDH Relative Expression” value (FOXO1; [2]) of the same molecule?
A: 1.317 and 1.387 and 1.877 and 1.660

Q: What about the “p-FOXO1/FOXO1 Relative Expression, Mean” value (FOXO1; Figure 4A, group mean, Con = 1.000) of the same molecule?
A: 2.044

Q: What about the “p-FOXO1/FOXO1 Relative Expression” value (FOXO1; Figure 4A, individual replicates, relative to Con) of the same molecule?
A: 2.153 and 1.987 and 1.525 and 2.510

Q: What about the “FOXO1/β-actin Relative Expression, Mean” value (FOXO1; Figure 4A, total FOXO1, group mean, Con = 1.000) of the same molecule?
A: 0.802

Q: And the “FOXO1/β-actin Relative Expression” value (FOXO1; Figure 4A, total FOXO1, individual replicates, relative to Con)?
A: 0.773 and 0.798 and 1.007 and 0.631

Q: And the “FOXO1/GAPDH Relative Expression, Mean” value (FOXO1; [3])?
A: 1.680

Q: And the “p-FOXO1/GAPDH Relative Expression, Mean” value (FOXO1; [3])?
A: 1.601

Q: What about the “FOXO1/GAPDH Relative Expression” value (FOXO1; [4]) of the same molecule?
A: 1.609 and 1.840 and 1.778 and 1.494

Q: And the “p-FOXO1/GAPDH Relative Expression” value (FOXO1; [4])?
A: 1.850 and 1.523 and 1.386 and 1.647

Q: What about the “FOXO1/Lamin B Relative Expression, Mean” value (FOXO1; Figure 4B, group mean, Con = 1.000) of the same molecule?
A: 0.556

Q: And the “FOXO1/Lamin B Relative Expression” value (FOXO1; Figure 4B, individual replicates, relative to Con)?
A: 0.674 and 0.519 and 0.531 and 0.499

Q: And the “FOXO1/Lamin B Relative Expression, Mean” value (FOXO1; Figure 4F, group mean, Con = 1.000)?
A: 0.751

Q: What about the “FOXO1/Lamin B Relative Expression” value (FOXO1; Figure 4F, individual replicates, relative to Con) of the same molecule?
A: 0.817 and 0.783 and 0.758 and 0.647

Q: What about the “p-FOXO1/FOXO1 Relative Expression, Mean” value (FOXO1; Whole cell lysate, Figure 4F, group mean, Con = 1.000) of the same molecule?
A: 1.362

Q: And the “p-FOXO1/FOXO1 Relative Expression” value (FOXO1; Whole cell lysate, Figure 4F, individual replicates, relative to Con)?
A: 1.502 and 1.205 and 1.426 and 1.314
